Source: US20130064834A1 (published 2013)

B1: H1M300N (antibody, V domains shown)
VH: EMQLVESGGGLVQPGGSLRLSCAASGFTFSSHWMKWVRQAPGKGLEWVANINQDGSEKYYVDSVKGRFTISRDNAKNSLFLQMNSLRAEDTAVYYCARDIVLMVYDMDYYYYGMDVWGQGTTVTVSS
VL: not shown
notes: Fully human version made in CHO cells
B2: H1H316P (antibody, V domains shown)
VH: EVQLVESGGGLVQPGGSLRLSCAASGFTFNNYAMNWVRQAPGKGLDWVSTISGSGGTTNYADSVKGRFIISRDSSKHTLYLQMNSLRAEDTAVYYCAKDSNWGNFDLWGRGTLVTVSS
VL: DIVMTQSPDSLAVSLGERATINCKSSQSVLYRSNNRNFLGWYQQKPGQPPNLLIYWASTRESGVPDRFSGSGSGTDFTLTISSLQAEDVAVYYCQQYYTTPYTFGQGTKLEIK
notes: Fully human mAb made in CHO cells; also called mAb316P

What was measured:
Human PCSK9-myc-myc-his [1] = biological target: T1, Human PCSK9-myc-myc-his (human, UniProt Q8NBP7 31-692); assay: competition ELISA vs EGF-AB-hFc, pH 5.5
T1 construct: also called hPCSK9-mmh; hPCSK9
Method: (§1) Briefly, hLDLR-ecto, hLDLR EGF-A-hFc or hLDLR EGF-AB-hFc, each at 2 μg/ml, was coated on a 96-well plate in PBS buffer overnight at 4° C., and nonspecific binding sites blocked with BSA. […] The equilibrated sample solutions were transferred to receptor or receptor fragment coated plates.

hPCSK9(R215H) = biological target: T2, hPCSK9(R215H) (human, UniProt Q8NBP7 31-692); assay: ELISA, mAb coated, variant 0-5 nM
T2 construct: mmh-tagged variant hPCSK9
Method: (§2) Anti-PCSK9 mAbs were coated on a 96-well plate overnight at 4° C.

hPCSK9(D238R) = biological target: T3, hPCSK9(D238R) (human, UniProt Q8NBP7 31-692); assay: ELISA, mAb coated, variant 0-5 nM
T3 construct: mmh-tagged variant hPCSK9
Method: as §2

hPCSK9(R237E) = biological target: T4, hPCSK9(R237E) (human, UniProt Q8NBP7 31-692); assay: ELISA, mAb coated, variant 0-5 nM
T4 construct: mmh-tagged variant hPCSK9
Method: as §2

hPCSK9(D192R) = biological target: T5, hPCSK9(D192R) (human, UniProt Q8NBP7 31-692); assay: ELISA, mAb coated, variant 0-5 nM
T5 construct: mmh-tagged variant hPCSK9
Method: as §2

hPCSK9(R215E) = biological target: T6, hPCSK9(R215E) (human, UniProt Q8NBP7 31-692); assay: ELISA, mAb coated, variant 0-5 nM
T6 construct: mmh-tagged variant hPCSK9
Method: as §2

hPCSK9(D343R) = biological target: T7, hPCSK9(D343R) (human, UniProt Q8NBP7 31-692); assay: ELISA, mAb coated, variant 0-5 nM
T7 construct: mmh-tagged variant hPCSK9
Method: as §2

hPCSK9(F216L) = biological target: T8, hPCSK9(F216L) (human, UniProt Q8NBP7 31-692); assay: ELISA, mAb coated, variant 0-5 nM
T8 construct: mmh-tagged variant hPCSK9
Method: as §2

hPCSK9(R194E) = biological target: T9, hPCSK9(R194E) (human, UniProt Q8NBP7 31-692); assay: ELISA, mAb coated, variant 0-5 nM
T9 construct: mmh-tagged variant hPCSK9
Method: as §2

hPCSK9(E366K, V380M) = biological target: T10, hPCSK9(E366K, V380M) (human, UniProt Q8NBP7 31-692); assay: ELISA, mAb coated, variant 0-5 nM
T10 construct: mmh-tagged variant hPCSK9
Method: as §2

hPCSK9(A341R) = biological target: T11, hPCSK9(A341R) (human, UniProt Q8NBP7 31-692); assay: ELISA, mAb coated, variant 0-5 nM
T11 construct: mmh-tagged variant hPCSK9
Method: as §2

hPCSK9(E197R) = biological target: T12, hPCSK9(E197R) (human, UniProt Q8NBP7 31-692); assay: ELISA, mAb coated, variant 0-5 nM
T12 construct: mmh-tagged variant hPCSK9
Method: as §2

hPCSK9(S127R) = biological target: T13, hPCSK9(S127R) (human, UniProt Q8NBP7 31-692); assay: ELISA, mAb coated, variant 0-5 nM
T13 construct: mmh-tagged variant hPCSK9
Method: as §2

hPCSK9(D129G) = biological target: T14, hPCSK9(D129G) (human, UniProt Q8NBP7 31-692); assay: ELISA, mAb coated, variant 0-5 nM
T14 construct: mmh-tagged variant hPCSK9
Method: as §2

hPCSK9(P70A, S147F) = hPCSK9(P70A, S147F) (human, UniProt Q8NBP7 31-692); assay: ELISA, mAb coated, variant 0-5 nM
Method: as §2

hPCSK9(S147F) = biological target: T15, hPCSK9(S147F) (human, UniProt Q8NBP7 31-692); assay: ELISA, mAb coated, variant 0-5 nM
T15 construct: mmh-tagged variant hPCSK9
Method: as §2

hPCSK9(P70A) = hPCSK9(P70A) (human, UniProt Q8NBP7 31-692); assay: ELISA, mAb coated, variant 0-5 nM
Method: as §2

hPCSK9(E159R) [2] = biological target: T16, hPCSK9(E159R) (human, UniProt Q8NBP7 31-692); assay: ELISA, mAb coated, variant 0-5 nM
T16 construct: mmh-tagged variant hPCSK9
Method: as §2

hPCSK9(R357H) = biological target: T17, hPCSK9(R357H) (human, UniProt Q8NBP7 31-692); assay: ELISA, mAb coated, variant 0-5 nM
T17 construct: mmh-tagged variant hPCSK9
Method: as §2

hPCSK9(S153R) [3] = biological target: T18, hPCSK9(S153R) (human, UniProt Q8NBP7 31-692); assay: ELISA, mAb coated, variant 0-5 nM
T18 construct: mmh-tagged variant hPCSK9
Method: as §2

Human PCSK9-myc-myc-his [4] = biological target: T1, Human PCSK9-myc-myc-his; assay: ELISA, mAb coated, variant 0-5 nM
Method: as §2

hPCSK9(V380M) = biological target: T19, hPCSK9(V380M) (human, UniProt Q8NBP7 31-692); assay: ELISA, mAb coated, variant 0-5 nM
T19 construct: mmh-tagged variant hPCSK9
Method: as §2

Human PCSK9-myc-myc-his [5] = biological target: T1, Human PCSK9-myc-myc-his; assay: competition ELISA vs hLDLR-ecto, pH 5.5
Method: as §1

hPCSK9(D374Y)-mmh [6] = biological target: T20, hPCSK9(D374Y)-mmh (human, UniProt Q8NBP7 31-692); assay: competition ELISA vs EGF-A-hFc, pH 7.2
T20 construct: also called hPCSK(D374Y)-mmh
Method: as §1

hPCSK9(D374Y)-mmh [7] = biological target: T20, hPCSK9(D374Y)-mmh; assay: SPR, mAb captured, 25C;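 also: antibodies held on a sensor chip bearing chemically coupled F(ab′)2 anti-human IgG as the capture surface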
From the text: (§3) Each selected antibody was captured on a F(ab′)2 anti-hIgG surface created through direct chemical coupling to a BIACORE™ chip to form a captured antibody surface.

hPCSK9(E366K) = biological target: T21, hPCSK9(E366K) (human, UniProt Q8NBP7 31-692); assay: SPR, mAb captured, 25C;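 also: antibodies held on a sensor chip bearing chemically coupled F(ab′)2 anti-human IgG as the capture surface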
T21 construct: mmh-tagged variant hPCSK9
From the text: as §3

hPCSK9(E159R) [8] = biological target: T16, hPCSK9(E159R); assay: SPR, mAb captured, 25C;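 also: antibodies held on a sensor chip bearing chemically coupled F(ab′)2 anti-human IgG as the capture surface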
From the text: as §3

hPCSK9(S153R) [9] = biological target: T18, hPCSK9(S153R); assay: SPR, mAb captured, 25C;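 also: antibodies held on a sensor chip bearing chemically coupled F(ab′)2 anti-human IgG as the capture surface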
From the text: as §3

hPCSK9(D374Y)-mmh [10] = biological target: T20, hPCSK9(D374Y)-mmh; assay: SPR, mAb amine-coupled, 25C, pH 5.5
From the text: (§4) Briefly, mAbs were immobilized onto BIACORE™ CM5 sensor chips via amine coupling.

[11] = biological target: T22, cynomolgus monkey (Macaca fascicularis) PCSK9, myc-myc-his tagged (cynomolgus monkey (Macaca fascicularis), UniProt A8T662 31-692 (Macaca nemestrina entry), limits assumed); assay: SPR, mAb amine-coupled, 25C, pH 5.5
T22 construct: also called mfPCSK9-mmh; mfPCSK9
T22 sequence (A8T662 31-692 limits assumed): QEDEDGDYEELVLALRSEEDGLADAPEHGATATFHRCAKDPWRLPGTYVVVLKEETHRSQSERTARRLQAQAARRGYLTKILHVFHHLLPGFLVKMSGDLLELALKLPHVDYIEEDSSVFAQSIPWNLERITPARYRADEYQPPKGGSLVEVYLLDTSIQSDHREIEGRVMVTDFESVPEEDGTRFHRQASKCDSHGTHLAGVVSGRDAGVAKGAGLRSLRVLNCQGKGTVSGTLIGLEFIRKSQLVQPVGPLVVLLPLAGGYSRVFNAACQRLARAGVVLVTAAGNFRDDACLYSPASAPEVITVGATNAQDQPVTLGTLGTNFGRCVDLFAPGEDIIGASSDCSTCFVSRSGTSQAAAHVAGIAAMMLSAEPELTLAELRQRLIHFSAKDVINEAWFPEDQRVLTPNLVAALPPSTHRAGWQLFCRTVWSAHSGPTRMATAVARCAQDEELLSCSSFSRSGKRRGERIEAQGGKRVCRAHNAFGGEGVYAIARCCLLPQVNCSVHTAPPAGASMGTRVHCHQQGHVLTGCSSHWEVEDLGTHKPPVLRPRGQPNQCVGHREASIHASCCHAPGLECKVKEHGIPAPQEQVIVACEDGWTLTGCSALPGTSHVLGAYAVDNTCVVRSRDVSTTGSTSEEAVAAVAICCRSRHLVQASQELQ
From the text: as §4

Human PCSK9-myc-myc-his [12] = biological target: T1, Human PCSK9-myc-myc-his; assay: SPR, mAb amine-coupled, 25C, pH 5.5
From the text: as §4

Row | Binder | IC50 (Human PCSK9-myc-myc-his [1]) [nM] | OD (hPCSK9(R215H)) [od] | OD (hPCSK9(D238R)) [od] | OD (hPCSK9(R237E)) [od] | OD (hPCSK9(D192R)) [od] | OD (hPCSK9(R215E)) [od] | OD (hPCSK9(D343R)) [od] | OD (hPCSK9(F216L)) [od] | OD (hPCSK9(R194E)) [od] | OD (hPCSK9(E366K, V380M)) [od] | OD (hPCSK9(A341R)) [od] | OD (hPCSK9(E197R)) [od] | OD (hPCSK9(S127R)) [od] | OD (hPCSK9(D129G)) [od] | OD (hPCSK9(P70A, S147F)) [od] | OD (hPCSK9(S147F)) [od] | OD (hPCSK9(P70A)) [od] | OD (hPCSK9(E159R) [2]) [od] | OD (hPCSK9(R357H)) [od] | OD (hPCSK9(S153R) [3]) [od] | further results
1 | B1 | 0.447 | > 1.5 | > 1.5 | > 1.5 | > 1.5 | > 1.5 | > 1.5 | > 1.5 | > 1.5 | 0.7 to 1.5 | > 1.5 | > 1.5 | > 1.5 | > 1.5 | > 1.5 | > 1.5 | > 1.5 | > 1.5 | > 1.5 | > 1.5 | OD (Human PCSK9-myc-myc-his [4]): > 1.5 od; OD (hPCSK9(V380M)): > 1.5 od; IC50 (Human PCSK9-myc-myc-his [5]): 1.49 nM; IC50 (hPCSK9(D374Y)-mmh [6]): 0.135 nM; Kd (hPCSK9(D374Y)-mmh [7]): 0.66 nM; T1/2 (hPCSK9(D374Y)-mmh [7]): 83 min; Kd (hPCSK9(E366K)): 36 nM; T1/2 (hPCSK9(E366K)): 2 min; Kd (hPCSK9(E159R) [8]): 0.82 nM; T1/2 (hPCSK9(E159R) [8]): 94 min; Kd (hPCSK9(S153R) [9]): 0.56 nM; T1/2 (hPCSK9(S153R) [9]): 141 min; Kd (hPCSK9(D374Y)-mmh [10]): 9.03 nM; T1/2 (hPCSK9(D374Y)-mmh [10]): 3 min; Kd [11]: 38.5 nM; T1/2 [11]: 0.4 min; Kd (Human PCSK9-myc-myc-his [12]): 3.1 nM; T1/2 (Human PCSK9-myc-myc-his [12]): 5 min
2 | B2 | < 0.125 | > 1.5 | < 0.7 | > 1.5 | > 1.5 | > 1.5 | > 1.5 | > 1.5 | > 1.5 | > 1.5 | > 1.5 | > 1.5 | > 1.5 | > 1.5 | > 1.5 | > 1.5 | > 1.5 | > 1.5 | > 1.5 | > 1.5 | OD (Human PCSK9-myc-myc-his [4]): > 1.5 od; OD (hPCSK9(V380M)): > 1.5 od; IC50 (Human PCSK9-myc-myc-his [5]): < 0.125 nM; IC50 (hPCSK9(D374Y)-mmh [6]): 0.203 nM; Kd (hPCSK9(D374Y)-mmh [7]): 2.04 nM; T1/2 (hPCSK9(D374Y)-mmh [7]): 15 min; Kd (hPCSK9(E366K)): 2.92 nM; T1/2 (hPCSK9(E366K)): 13 min; Kd (hPCSK9(E159R) [8]): 6.96 nM; T1/2 (hPCSK9(E159R) [8]): 5 min; Kd (hPCSK9(S153R) [9]): 5.64 nM; T1/2 (hPCSK9(S153R) [9]): 4 min; Kd (hPCSK9(D374Y)-mmh [10]): 0.166 nM; T1/2 (hPCSK9(D374Y)-mmh [10]): 13 min; Kd [11]: 0.008 nM; T1/2 [11]: 23 min; Kd (Human PCSK9-myc-myc-his [12]): 0.022 nM; T1/2 (Human PCSK9-myc-myc-his [12]): 39 min
